Reference: paper PMC2199005

Columns and labels:
[1] = target: recombinant streptococcal pyrogenic exotoxin C (SPE-C) (Streptococcus pyogenes); test: nondenaturing SDS-PAGE
[2] = target: recombinant streptococcal pyrogenic exotoxin C (SPE-C) (Streptococcus pyogenes); test: SEC

With “recombinant streptococcal pyrogenic exotoxin C (SPE-C) (natural protein)” the percent of SPE-C in dimer form [1] was greater than 60%, the percent dissociated to the monomer form [2] was 50% and the stoichiometry N [2] was 2.
